In paper doi:10.1101/2024.10.21.619555:

Target: DR6 ECD-Halo (UniProt O75509)
Assay: single-molecule dual-color photobleaching

DR6 ECD-Halo, sequence (O75509 42-349): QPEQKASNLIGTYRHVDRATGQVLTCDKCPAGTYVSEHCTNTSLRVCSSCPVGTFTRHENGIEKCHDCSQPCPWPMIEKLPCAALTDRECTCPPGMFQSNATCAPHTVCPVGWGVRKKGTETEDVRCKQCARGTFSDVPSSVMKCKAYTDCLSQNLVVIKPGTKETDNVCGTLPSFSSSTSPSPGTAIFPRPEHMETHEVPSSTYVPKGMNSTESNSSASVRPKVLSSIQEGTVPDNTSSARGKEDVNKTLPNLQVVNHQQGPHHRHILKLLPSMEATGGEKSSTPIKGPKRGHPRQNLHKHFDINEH

stoichiometry N: 1
Substance: RBP4-SNAP (from UniProt P02753 19-201) (ligand)
